Results: the DeepSol protein solubility set

Experiment: soluble on expression in E. coli; label from the status in PepcDB or PDB records

Row | Sequence | soluble on expression in E. coli
1 | MQLYYLGPKGTFSYLACRQYFSENEATFQPKSNLFEVIKAVADDDTSIGVVPIENSIEGTINIVADALAQQDVFAHGEIRLDINFALYGNGTDSISDIKKVYSIAPAISQTTNYIHQHQFDYDYVDSTIQSLTKIENGVAAIAPLGSGEAYGFTPIDTHIEDYPHNVTRFLVIKNQQQFDQNATSLMFLITPMHDKPGLLASVLNTFALFNINLSWIESRPLKTQLGMYRFFVQADSAITTDIKKVIAILETLDFKVEMIGAFN | soluble
2 | MQMNSEKFFKLFRVGETVLVEYSGTSRAELLLYYIVNNSKLPIVVDDILDTYYEFYTRLKVAGFDVAPLENVQVIKMGGTKDIGRVIGRLNISKYVISEQEYMEIVSQLKDYPVINPVLGLHKLILLGNTFENINVVKMVSNYVGREERIAFYFVNRNVIEKHSSPILDLLEEVVTSILEITDSGIIIKKSIKDEIAGKIVSPLLNF | soluble
3 | MQMQVLTNTKFETVAFQWPAGFYSDGIHIGLRRHKKDFGWLFSKVPASAAGTYTTNQFQAAPTKLTKQMIDQGHQLQGLLLNSAIANSCTGEQGWQNALQEQAWLANKLNVAPNLIGVASTGLIGAQLPMDKIKNGLPQLTPTKSDAVTYAVLTTDQHPKTVCVQCELSGQLVTLTGFAKGSGMIHPKMATMLGFVTTDAQIDGPVLQDMLSTNVDQTFNQITVDGDTSTNDMVVTLANGLADNPSLQAGTTDYDIFNQALHYVLGQLAKQIAADGEGATKLVECNVVHAATTFDGQQIAKAIVGSNLVKAAIFGEDPNWGRIISTIGATDADIDVATVDIEMNGVLLVQQSLAVDFDMAAVQATLRDNQIMIDVDLHHGTASGQAWGCDLTYNYVKINASYHTLEHHHHHH | not soluble
4 | MQNDNAKPISISKQLVYDAFLRVKANRGSAGIDKVTLEDYEKNLRGNLYKLWNRMSSGSYFPPSVKLVEIPKSTGGKRPLGIPTVSDRVAQMAVVMLITPSIEPCFHEDSYAYRPHRSAHDAVGKARERCWKYAWVLDMDISKFFDTIDHELLLKALKRHTQEKWVLMYIERWLKVPYEKSDGSQVDRALGVPQGSVIGPVLANLFLHYTFDKWMEKNFPRVPFERYADDTICHCHSLKQAEYMQAMIQQRFECCRLRLNEEKTKIVYCKSSRQKECYPNVTFDFLGFTFQPRESVDKYGNRFTGFLPAISRKSMKRINETMRSWHLNRHSNLTLEHLASDINPIVRGWMTYYGKFYPTRLKWFMQTLNGRLARWVMCKFERYRHRFYPAQEWLARIAEKEGLIFYHWKCGALPRFTNKEKVSSQLIMVK | soluble
5 | MQNNSYGYAVSVRVGGKEHRHWERYDIDSDFLIPADSFDFVIGRLGPEAAIPDLSGESCEVVIDGQIVMTGIIGSQRHGKSKGSRELSLSGRDLAGFLVDCSAPQLNVKGMTVLDAAKKLAAPWPQIKAVVLKAENNPALGKIDIEPGETVWQALTHIANSVGLHPWLEPDGTLVVGGADYSSPPVATLCWSRTDSRCNIERMDIEWDTDNRFSEVTFLAQSHGRSGDSAKHDLKWVYKDPTMTLHRPKTVVVSDADNLAALQKQAKKQLADWRLEGFTLTITVGGHKTRDGVLWQPGLRVHVIDDEHGIDAVFFLMGRRFMLSRMDGTQTELRLKEDGIWTPDAYPK | not soluble
6 | MQNRLRSALALVTGAGSGIGRAVSVRLAGEGATVAACDLDRAAAQETVRLLGGPGSKEGPPRGNHAAFQADVSEARAARCLLEQVQACFSRPPSVVVSCAGITQDEFLLHMSEDDWDKVIAVNLKGTFLVTQAAAQALVSNGCRGSIINISSIVGKVGNVGQTNYAASKAGVIGLTQTAARELGRHGIRCNSVLPGFIATPMTQKVPQKVVDKITEMIPMGHLGDPEDVADVVAFLASEDSGYITGTSVEVTGGLFMAENLYFQ | soluble
7 | MQPHPETTPVTSCTIIDATDRSIRQTLGETSTLARLIWVDAGLASPPLCSGLARCGRCRVRITEAAPAPHEDDREFFSAEDISAGWRLACRHAPAHGMVVHVPLPVMPHRHASRPKHPGPFRLAVDLGTTSLQWSLLAPDGTVAAQGSETNPQMGAGSDVMSRIAMARSDKGRGRLRELVLQALRRIVADVEGTPATADAVPPAGSGDEPTTACGYESRVEELCVAGNTAMTAILADESVEGLASAPYRLEMRGGTALALPGLPPAWIPPLPAPFVGGDLSAGYLAVLTDHAPAFPFVLADLGTNGEFVLALSPERTLVTSVALGPALEGIGLTFGTVAQRGAITSFTLTPGGLVPYVLDGGEADGISGTGYISLVHALLRAGLLDVDGRFIQSPSSPLAARMARSIVSHRGEPCLPLARGLYLAARDIEEILKVKAAFSLAFERLLATAQMPSHALSGIHLAGALGQHALPADLEGLGFIPPGSGGRTRAVGNTSLRGAELLLTSPPLRDTLNTWREGCTVVDLTAAPDFSAAFLRHMHFHFLEHHHHHH | soluble
8 | MQPLKRIRHPSGSEILFDAKWHQYKLGGTALRSVSKLLDRFFPFDEKRVLELVSKKTGQPVDKIKQGWSRQALLGKNVHEFIECKLLKKPPPTFTLLMKRKQAREAARPADATGPAAITTTPLEDEVLHGEEALYLPVAEMAVEKVLSTYDVLGAEQVIAAPGWGIAGTIDFMGRNRRTNRVLIGDWKTTGSVTSNFRFGSFETACPGALRHLPNSKMYRYAMQVTIYGEILAREQYFEKQFFDAQLRASLTASLAVPSTDVTPPAPPAKTRGRPSSRAAAPAKSDIGSDVESLLKTFYRNNTEQRFEYGIVQLAKGEDGGVVAEFKEVTPETVMPPDCPEMTFDSLLQRVMEGVGV | soluble
9 | MQPNDITFYQRFEADILAGHKTISIRDDSESHFKAGDILRVGRFEDNQYFCNIEVLSVSPITLDELTQPHAKQENMGLDELKEVIRGIYPNEIIFWVIQFSLKEYFNEEKCVREIIITDRKFN | soluble
10 | MQPPPRKVKPAQEVKLRFLEQLSILQTWQQREADLLEDIRSYSKQRAAIEREYGQALQKLAGPFLKREGHRSGEMDSRGRTVFGAWRCLLDATVAGGQTRLQASDRYRDLAGGTGRSAKEQVLRKGTENLQRAQAEVLQSVRELSRSRKLYGQRERVWALAQEKAADVQARLNRSDHGIFHSRTSLQKLSTKLSAQSAQYSQQLQAARNEYLLNLVATNAHLDHYYQEELPALLKALVSELSEHLRDPLTSLSHTELEAAEVILEHAHRGEQTTSQVSWEQDLKLFLQEPGVFSPTPPQQFQPAGTDQVCVLEWGAEGVAGKSGLEKEVQRLTSRAARDYKIQNHGHRVLQRLEQRRQQASEREAPSIEQRLQEVRESIRRAQVSQVKGAARLALLQGAGLDVERWLKPAMTQAQDEVEQERRLSEARLSQRDLSPTAEDAELSDFEECEETGELFEEPAPQALATRALPCPAHVVFRYQAGREDELTITEGEWLEVIEEGDADEWVKARNQHGEVGFVPERYLNFPDLSLPESSQDSDNPCGAEPTAFLAQALYSYTGQSAEELSFPEGALIRLLPRAQDGVDDGFWRGEFGGRVGVFPSLLVEELLGPPGPPELSDPEQMLPSPSPPSFSPPAPTSVLDGPPAPVLPGDKALDFPGFLDMMAPRLRPMRPPPPPPAKAPDPGHPDPLT | soluble
11 | MQPTSITVASYNLRNANGGDSINGNGWGQRYPVIAQIVQYHDFDIFGTQECFIHQLKDMKEALPGYDYIGVGRDDGKEKGEHSAIFYRTDKFDVIEKGDFWLSETPDVPSKGWDAVLPRICSWGHFKCKDTGFEFLFFNLHMDHIGKKARVESAFLVQDKMKELGKGKELPAILTGDFNVDQTHQSYDAFVSKGVLCDSYEKAGFRYAINGTFNDFDPNSFTESRIDHIFVSPSFQVKRYGVLTDTYRSIVGKGEKKQANDCPEEIDIKTYQARTPSDHFPVKVELEFDQRQQKLEHHHHHH | soluble
12 | MQQEHRECIEQCYECAAACDICASSCLREDNVEMMKHCIQLDMQCAAICRLAAQFMALESEYSQKLCRLCADICKACAEECARHDHDHCQNCARACSQCADACLKMAALEHHHHHH | not soluble
13 | MQQKDAVPDTAKKLKAPLTGLKTEQKVTERRPVAVVVNNHPKARPQSGLSKADIVIEALAEGQITRFLAIFQSQMPETVGPVRSAREYFVTLSNGFDSIFVHHGWSPGAKKQLESGAADYMNGLDFDGSLFWRADFSKPPHNSYTSYDYIKKAAEQKGYKLKQETNPLLFQTSDAKPANESYNVRVDYGTNNVTNLVEYNYDKKAEFYTRSSDGVITTDRETGKPVAMQNIFIVEASHHIIDQDGRRDIDLESGGKGLLFQHGNVIETDWKQVNGRIVPVKDGKWLPFVPGKTWINIVPDLDAASISKGEGVLEHHHHHH | soluble
